Positions count from the first letter of the chain named. Where two headings read alike, the source gives them in different places. Positions of bridges follow the written chain, without caps; N, C: chain ends. Non-standard residues stand in square brackets, D forms with d. No end group written: not given here. NMeA = CN[C@@H](C)C(=O)O; dNMeA = CN[C@H](C)C(=O)O

The text below walks through data of patent publication US20220125891A1 (OSAKA UNIVERSITY, published 2022).

The target in experiment [1] is T1, full-length human Regnase-1 with a FLAG tag on the N-terminal side and a biotin ligase BirA recognition … (human, UniProt Q5D1E8 1-599, biotinylated where required ; Biotinylated at the BirA recognition sequence where required. That sequence is not in the letters.).
T1 construct: Expressed in Expi293 cells, purified on FLAG M2 agarose and by gel filtration; also called full-length Regnase-1; human full-length Regnase-1
T1 sequence: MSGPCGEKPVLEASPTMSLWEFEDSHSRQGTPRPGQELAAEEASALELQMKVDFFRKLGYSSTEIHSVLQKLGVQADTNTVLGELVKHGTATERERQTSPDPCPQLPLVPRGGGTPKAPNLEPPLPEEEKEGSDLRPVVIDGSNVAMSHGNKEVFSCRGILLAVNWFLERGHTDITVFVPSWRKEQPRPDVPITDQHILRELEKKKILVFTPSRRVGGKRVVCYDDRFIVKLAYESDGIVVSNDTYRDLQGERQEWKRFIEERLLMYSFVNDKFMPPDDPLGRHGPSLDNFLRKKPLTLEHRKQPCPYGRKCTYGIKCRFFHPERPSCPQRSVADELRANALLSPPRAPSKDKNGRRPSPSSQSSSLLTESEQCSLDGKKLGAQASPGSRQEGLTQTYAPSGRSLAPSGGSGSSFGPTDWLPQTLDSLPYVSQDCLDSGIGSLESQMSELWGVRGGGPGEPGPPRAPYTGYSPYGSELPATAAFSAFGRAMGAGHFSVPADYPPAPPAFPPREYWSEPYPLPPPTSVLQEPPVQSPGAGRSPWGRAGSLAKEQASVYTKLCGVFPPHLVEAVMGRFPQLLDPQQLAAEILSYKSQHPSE
Description: AlphaScreen, blocks IKKβ binding to FL_Reg1.

Experiment [2] deals with T1, full-length human Regnase-1 with a FLAG …. Description: AlphaScreen, blocks IKKβ binding to FL_Reg1. This is another data set of the same source.
Experiment [3] has the same target. Description: cell-based or functional assay.
Experiment [4] has as its target T2, Reg1_301-599 (human Regnase-1 amino acids 301 to 599, FLAG tag on the N-terminal side, BirA recognition … (human)).
T2 sequence (Q5D1E8 301-599, looked up): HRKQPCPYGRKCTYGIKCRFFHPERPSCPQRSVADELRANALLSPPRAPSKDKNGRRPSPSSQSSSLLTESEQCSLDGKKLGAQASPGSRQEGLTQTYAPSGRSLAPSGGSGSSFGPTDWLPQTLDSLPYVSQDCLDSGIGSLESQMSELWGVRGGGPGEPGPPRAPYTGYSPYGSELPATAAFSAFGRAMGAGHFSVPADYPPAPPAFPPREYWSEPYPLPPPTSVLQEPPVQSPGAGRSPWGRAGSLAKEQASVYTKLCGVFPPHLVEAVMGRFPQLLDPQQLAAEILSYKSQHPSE
The experiment in a line: cell-based or functional assay.

The target in experiment [5] is T3, ΔCTD_Reg1 (human Regnase-1 amino acids 1 to 546, FLAG tag on the N-terminal side, BirA recognition sequence … (human)). Description: cell-based or functional assay.
Experiment [6] concerns the target T1, full-length human Regnase-1 with a FLAG …. Description: affinity selection-MS (SEC, LC/MS), 1 µM each.
For experiment [7] the target is unchanged. The experiment in a line: cell-based or functional assay. The source holds these as a separate data set.
Experiment [8] concerns the target T2, Reg1_301-599 (human Regnase-1 amino …). The experiment in a line: cell-based or functional assay. The source holds these as a separate data set.
Experiment [9] addresses T3, ΔCTD_Reg1 (human Regnase-1 amino acids …). The experiment in a line: cell-based or functional assay. The source holds these as a separate data set.
Experiment [10] concerns the target T1, full-length human Regnase-1 with a FLAG …. Description: AlphaScreen, blocks TBK1 binding to FL_Reg1.
Experiment [11] shares this target. Description: cell-based or functional assay. This is another data set of the same source.
The target of experiment [12] is T3, ΔCTD_Reg1 (human Regnase-1 amino acids …). Description: cell-based or functional assay. This is another data set of the same source.
The target of experiment [13] is T1, full-length human Regnase-1 with a FLAG …. Description: AlphaScreen, blocks TBK1 binding to FL_Reg1. This is another data set of the same source.
Experiment [14] shares this target. The experiment in a line: flow cytometry of antigen-coated streptavidin beads.
The target in experiment [15] is T4, Peptide 1 (CLDSGIGSLESQMSELWGVRGG), biotin-conjugated (human, biotin-conjugated).
T4 construct: also called human Regnase-1 peptide
T4 peptide: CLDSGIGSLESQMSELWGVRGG
The description is as above.

Regarding [NMeA]YIWDFFGDLD (lactam N-11) [PP4], the IC50 was determined as 47.7 µM in experiment [1], 47.7 µM in [2], 24.4 µM in [10] and 24.4 µM in experiment [13]. Moreover, the “IC50, phosphorylation by TBK1” value in experiment [3] stood at 61.9 µM; in experiment [4] it was 35.9 µM; in experiment [5], 44.9 µM; in experiment [11] it was 61.9 µM; in [12], 44.9 µM. Besides, the “AS-MS ratio(%)” value in [6] worked out at 37.5%. The “IC50, phosphorylation by IKKβ” value in [7] was 19.5 µM; in experiment [8], 12.8 µM; in [9], 8.3 µM; in [11], 19.5 µM; in experiment [12], 8.3 µM.

B1: REB0007 (antibody, V domains shown)
VH: QEQLEESGGDLVKPEGSLTLTCTASGFSFNSRYWICWVRQAPGKGLEWIGCIVSGDSNTYYASWAKGRFTISKTSSTTVTLQMTSLTAADTATYFCARWYTSSRPGLWGPGTLVTVSS
VL: DVVMTQTPASVSEPVGGTVTIKCQASQSISSYLSWYQQKPGQPPKLLIYSATNLASGVSSRFKGSRFGTEFTLTISDLECDDAATYYCQCSYYVSGFAFGGGTEVVVKG
notes: Rabbit antibody gene expressed in HEK293 cells, purified by Protein A; also called anti-Regnase-1 antibody; anti-non-phosphorylated Regnase-1 peptide antibody
Regarding B1, the binding result in [14] is listed as “binds”.

B2: REB0022 (antibody, V domains shown)
VH: QEQLEESGGDLVKPEGSLTLTCTASGGSFSSRYWMCWVRQAPGKGLEWIACIVIGDRNNYYASWAKGRFTISKTSSTTVTLQMTSLTAADTATYFCARWHSSTAPSLWGPGTLVTVSS
VL: B1 VL with K22N, S50K, T52S, N53T, R66G, F67S, D81A, A98V
notes: as for B1
As to B2, in experiment [14], the binding result is listed as “binds”.

In the case of [dNMeA]PNSSWFKIWD (lactam N-11) [PP6], the IC50 in [1] was 42.1 µM; in experiment [2], 42.1 µM; in [10], 19.2 µM; in experiment [13] it was 19.2 µM. The “IC50, phosphorylation by TBK1” value in [3] was 13.1 µM; in experiment [4] it was 16.8 µM; in experiment [5] it was 14.5 µM; in experiment [11] it was 13.1 µM; in experiment [12], 14.5 µM. For the same molecule, the “AS-MS ratio(%)” value in experiment [6] came to 6.4%. For the same molecule, the “IC50, phosphorylation by IKKβ” value in [7] came to 17 µM; in [8], 17.5 µM; in experiment [9], 20.3 µM; in [11], 17 µM; in [12], 20.3 µM.

B3: REB0014 (antibody, V domains shown)
VH: QSLEESGGGLVKPGGTLTLTCKASGIDFSSYYYMCWVRQAPGKGLEWIACIYSGDGSSYYVSWANGRFTISKTSSATVTLQMTSLTAADTATYFCARDLGNLWGPGTLVTVSS
VL: QVLTQTPASVSAAVGGTVTINCQASQSVYKNSGLSWFQQKPGQSPKRLIYSASTLDSGVPSRFKGSGSGTQFTLTISDVQCDDAATYYCLGIYVCSSVDCGAFGGGTEVVVKG
notes: as for B1
On to B3, for which, in [14], the binding result is reported as “binds”.

For the molecule [NMeA]HSNAWYNIWD (lactam N-11) [PP5], the concentration for half-maximal inhibition (IC50) in experiment [1] was 24 µM; in experiment [2] it was 24 µM; in [10] it was 11.5 µM; in [13], 11.5 µM. For the same molecule, the “IC50, phosphorylation by TBK1” value in [3] turned out to be 24.2 µM; in experiment [4] it was 40.4 µM; in experiment [5], 19.1 µM; in [11], 24.2 µM; in experiment [12], 19.1 µM. For the same molecule, in experiment [6], the “AS-MS ratio(%)” value was found to be 20.8%. In addition, the “IC50, phosphorylation by IKKβ” value was determined as 23.6 µM in experiment [7]; 31.3 µM in experiment [8]; 20.4 µM in experiment [9]; 23.6 µM in experiment [11]; 20.4 µM in experiment [12].

B4: REA0023 (antibody, V domains shown)
VH: QSLEESGGDLVKPGASLTLTCTDAGFSFSGVYWMHWVRQAPGKGLEWIACINAGSSGSTYYASWAKGRFTISKPSSTTVTLQMTSLTVADTATYFCARSFTLWGPGTLVTVSS
VL: AVVTQTPSSVSAAVGGTVTIKCQSSQSVGNNNYLAWFQQKPGQPPKLLIYSASTLASGVPSRFSGSGSGTQFTLTISGVQCDDAATYYCLGGYDGDGEAFYVFGGGTEVVVKG
notes: as for B1
On to B4, for which the binding result in [14] and in experiment [15] was “binds” in each case.

B5: REA0027 (antibody, V domains shown)
VH: B4 VH with D23A, A24S, S27G, G30S, V31S, G57T, S58K, R98W, T101N
VL: B4 VL with Y33W
notes: as for B1
With B5, the binding result in experiment [14] and in [15] was “binds” each time.
